For this assay, the target named is GP46 protein of Lactococcus lactis phage vB_Llc_bIBBF13 (F13), purified, SUMO tag removed (Lactococcus lactis phage vB_Llc_bIBBF13 (F13)). Kind of assay: SEC-MALS; GP46F13 100 ul injected at 1.5 mg/ml on Superdex 200 Increase 10/300, room temperature, 0.5 ml/min, 50 mM Tris-HCl pH 8, 500 mM NaCl, 20 mM imidazole, no cofactors. (In general: Size exclusion chromatography separates by hydrodynamic size, large species first.)

What is called stoichiometry N is a count of units in the complex or per binding partner. With “GP46 protein of Lactococcus lactis phage vB_Llc_bIBBF13 (F13), purified, SUMO tag removed (enzyme)”, the stoichiometry N was 2.

For the origin of these results see article PMC8965321.
